Assays:
human TNFα [1] = target: T1, human TNFα (human, UniProt P01375); test: SPR
human TNFα [2] = target: T1, human TNFα; test: SPR; remark: listed apart in the source
human TNFα [3] = target: T1, human TNFα; test: other, equilibrium analysis

T1 sequence (P01375 77-233): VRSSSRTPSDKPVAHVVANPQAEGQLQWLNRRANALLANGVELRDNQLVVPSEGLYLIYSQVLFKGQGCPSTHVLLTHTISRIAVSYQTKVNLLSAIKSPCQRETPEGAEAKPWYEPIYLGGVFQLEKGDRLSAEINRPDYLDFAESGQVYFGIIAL

Row | Binder | koff (human TNFα [1]) [s⁻¹] | Kd (human TNFα [2]) [nM] | Kd (human TNFα [3]) [nM]
1 | 2SD4 scFv (antibody, V domains shown) VH: QVQLVESGGGLVQPGRSLRLSCAASGFTFDDYAMHWVRQAPGKGLDWVSAITWNSGHIDYADSVEGRFAVSRDNAKNALYLQMNSLRPEDTAVYYCTKASYLSTSSSLDNWGQGTLVTVSS VL: DIQMTQSPSSLSASIGDRVTITCRASQGIRNYLAWYQQKPGKAPKLLIYAASTLQSGVPSRFSGSGSGTDFTLTISSLQPEDVATYYCQKYNSAPYAFGQGTKVEIK | 0.0137 | – | –
2 | 2SD4 IgG4 (antibody, V domains shown) VH: QVQLVESGGGLVQPGRSLRLSCAASGFTFDDYAMHWVRQAPGKGLDWVSAITWNSGHIDYADSVEGRFAVSRDNAKNALYLQMNSLRPEDTAVYYCTKASYLSTSSSLDNWGQGTLVTVSS VL: DIQMTQSPSSLSASIGDRVTITCRASQGIRNYLAWYQQKPGKAPKLLIYAASTLQSGVPSRFSGSGSGTDFTLTISSLQPEDVATYYCQKYNSAPYAFGQGTKVEIK | – | 20 | 0.48
